Tests used:
[1] = target: murine VISTA expressed on EL4 cells (EL4-mVISTA) (murine) (UniProt Q9D659); assay: flow cytometry on EL4-mVISTA cells
[2] = target: murine OX40 expressed on cells (CHOK1-mOX40) (murine) (UniProt P47741); assay: flow cytometry on CHOK1-mOX40 cells
[3] = target: hOX40-His (human) (UniProt P43489); assay: SPR (BioRad ProteOn XPR 360) per Example 5; FIG. 5 legend says biolayer interferometry (Octet); hOX40-His as ligand, analyte at 66.7 nM
Chain of hOX40-His (human) (P43489 29-216 limits assumed): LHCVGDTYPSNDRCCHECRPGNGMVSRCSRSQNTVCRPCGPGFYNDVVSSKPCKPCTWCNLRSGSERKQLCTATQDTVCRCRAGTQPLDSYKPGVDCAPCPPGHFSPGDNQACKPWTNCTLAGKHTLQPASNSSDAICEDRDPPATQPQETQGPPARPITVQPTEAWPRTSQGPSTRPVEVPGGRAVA

Chain of murine OX40 expressed on cells (CHOK1-mOX40) (murine) (P47741 20-272): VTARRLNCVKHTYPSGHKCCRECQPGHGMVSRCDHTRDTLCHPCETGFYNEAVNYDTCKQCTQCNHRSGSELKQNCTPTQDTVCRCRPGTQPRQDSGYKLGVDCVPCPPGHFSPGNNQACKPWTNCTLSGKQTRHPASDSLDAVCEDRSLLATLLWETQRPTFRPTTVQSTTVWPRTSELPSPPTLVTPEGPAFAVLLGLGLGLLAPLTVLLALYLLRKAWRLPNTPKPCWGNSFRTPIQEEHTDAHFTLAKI
Chain of murine VISTA expressed on EL4 cells (EL4-mVISTA) (murine) (Q9D659 33-308): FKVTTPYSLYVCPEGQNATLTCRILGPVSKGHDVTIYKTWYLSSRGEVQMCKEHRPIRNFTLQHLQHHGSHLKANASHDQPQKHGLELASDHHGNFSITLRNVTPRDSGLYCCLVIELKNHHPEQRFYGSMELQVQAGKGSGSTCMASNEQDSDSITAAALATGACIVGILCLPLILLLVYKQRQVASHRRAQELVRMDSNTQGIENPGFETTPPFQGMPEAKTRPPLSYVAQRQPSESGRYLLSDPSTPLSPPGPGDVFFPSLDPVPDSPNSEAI

Row | EC50 [1] | EC50 [2] | Kd [3] | koff [3] | kon [3] | Substance
1 | 56 nM | 16 nM | – | – | – | murine VSIG8-Fc-OX40L chimeric protein (from UniProt Q6P3A4 22-262; P43488 51-198) (Fc fusion)
2 | – | – | 0.152 nM | 5.03e-05 s⁻¹ | 332000 M⁻¹ s⁻¹ | tavolixumab (an anti-human OX40 antibody)

Reference: patent US20200071378A1
